Data set [1] has as its system BALF2 Δ52 (Epstein-Barr virus (EBV)). As to the kind of experiment: fluorescence anisotropy. Particulars: not in material (Methods absent); anisotropy titrations in triplicate.
For data set [2], the system named is BALF2 wild type (Epstein-Barr virus (EBV)). As to the kind of experiment: fluorescence anisotropy. To be noted: not in material (Methods absent); anisotropy titrations in triplicate.

Turning to 16-mer ssDNA, the Kd in data set [1] came out at 1040 nM; in data set [2], 232 nM.

Source of the values: doi:10.1101/2025.06.25.661518.
